Test results taken from patent US20240058275A1, “NANO-SILICA - IN YEAST PARTICLE (YP) DRUG ENCAPSULATION APPROACH FOR IMPROVED THERMAL AND HYDROLASE STABILITY OF YP DRUG DELIVERY FORMULATIONS” (UNIVERSITY OF MASSACHUSETTS, priority 2022, published 2024).

Assays:
[1] = Encapsulation efficiency of proteins ensilicated in GPs with 100% TEOS; format: physicochemical; details: 100% TEOS prepolymerized at pH 2, SDS-PAGE
Method: Dry GPs were mixed with a solution of 25 mg/mL protein in water (4 μL protein solution per mg GP, 100 μg protein per mg GP), incubated to allow for complete absorption of protein solution inside the hollow cavity of GPs, and then the samples were frozen and lyophilized. To maximize protein incorporation into GPs, the dry GP-OVA samples were hydrated with 2 μL water per mg GP, mixed, frozen, and lyophilized. TEOS (Millipore Sigma, Burlington, MA, USA; #86578, ≥99% purity, density 0.933 g/mL) was mixed with a 0.01 M HCl (pH 2) solution at a volume ratio of 2:1 (v/v) aqueous HCl:TEOS and the sample was incubated at 20° C. with constant mixing for one hour to allow for partial polymerization of TEOS. Then, the partially polymerized single phase TEOS solution was added to dry GP-protein (4 μL per mg GP) and the sample was incubated for one hour. GP ensilicated protein samples were suspended in 0.9% sterile saline (5 mg GP/mL), centrifuged and the supernatants were collected to quantify unencapsulated protein. The samples were then washed three more times in 0.9% sterile saline, suspended in 0.9% saline at 5 mg GP/mL and stored at 20° C.
GP ensilicated protein was extracted and quantified by following the procedure described above for BSA. Proteins in the GP supernatants and pellets were quantified by SDS-PAGE.

[2] = Ensilication (trapping) efficiency of BSA within GPs, quantified by SDS-PAGE; format: physicochemical; details: TEOS pre-polymerized at pH 2, TEOS:rBSA ratios of 1.3 to 24.9
Method: The efficiency of ensilication of BSA within GPs was tested. […] The samples were mixed, incubated at room temperature for 30 minutes, frozen and lyophilized to remove solvent. The loading cycle was repeated by adding 10 μL of water to the dry fGP rBSA sample to draw payload within the matrix of the GP shell into the hollow GP cavity, the sample was mixed and lyophilized to remove solvent.
TEOS was mixed with 0.01 M HCl solution (pH 2). The mixture was mixed for 1 hour to achieve TEOS prepolymerization and formation of a single aqueous phase in which the TEOS was close to its gel point. Solutions with different ratios of TEOS and 0.01 M HCl were prepared to target TEOS:rBSA weight ratios from 0 to 24.9. […]
The ensilicated fGP-rBSA samples were washed three times with 0.9% saline. The ensilicated fGP rBSA pellets were evaluated by microscopy to assess efficient trapping of rBSA within the cavity of fGPs, and percent protein encapsulation was quantified by SDS-PAGE. […]
Acid catalyzed TEOS forms long, linear polymers that easily entangle and gel. […] The percent of BSA trapped in GPs was measured as described above.
GPs containing ensilicated fBSA were also prepared as described before at the optimal TEOS polymerization conditions with 0.01 M HCl (pH 2) for use as control. Percent of BSA trapped in GPs was measured as described above.

| Molecule | % encapsulation efficiency in GPs [1] [%] | percent of rBSA trapped in fGPs [2] [%] |
| --- | --- | --- |
| Transferrin: transferrin protein payload | 92 ± 8 | – |
| rBSA: rhodamine labeled BSA payload | – | > 80 |
| Ovalbumin: ovalbumin protein payload (protein, UniProt P01012 2-386, looked up) Ovalbumin: GSIGAASMEFCFDVFKELKVHHANENIFYCPIAIMSALAMVYLGAKDSTRTQINKVVRFDKLPGFGDSIEAQCGTSVNVHSSLRDILNQITKPNDVYSFSLASRLYAEERYPILPEYLQCVKELYRGGLEPINFQTAADQARELINSWVESQTNGIIRNVLQPSSVDSQTAMVLVNAIVFKGLWEKAFKDEDTQAMPFRVTEQESKPVQMMYQIGLFRVASMASEKMKILELPFASGTMSMLVLLPDEVSGLEQLESIINFEKLTEWTSSNVMEERKIKVYLPRMKMEEKYNLTSVLMAMGITDVFSSSANLSGISSAESLKISQAVHAAHAEINEAGREVVGSAEAGVDAASVSEEFRADHPFLFCIKHIATNAVLFFGRCVSP | 97 ± 3 | – |
